From patent US20240131147A1 come the findings set out here.

The target of this experiment is HIV-1 Clade B Env RHPA on pseudotyped virus (HIV-1). Kind of experiment: competition ELISA on coated RHPA pseudovirus; competitors: sera of MLA092- and MLA025-immunized mice diluted 1:400. (In general: An ELISA detects its analyte on a solid surface through an enzyme-linked reagent.)

In turn, “10E8 broadly neutralizing human anti-HIV-1 Env monoclonal antibody” had a concentration that completely inhibited the binding of sera of 2 µg/mL.
